Reference: publication PMC11665613 (2024)

Assays:
Assay in all cases: MST
[1] = biological target: NCP2, nucleosome core particle with 3xFLAG-H3K36NleCTMS (X. laevis | , cysteine at position 36 alkylated with vinyl cyclic sulfonium 5 (NleCTMS))
[2] = biological target: NCP3, nucleosome core particle with 3xFLAG-H3Kc36me3 (X. laevis | , Kc36me3 (trimethyllysine mimic on cysteine at position 36))
[3] = biological target: NCP1, nucleosome core particle with 3xFLAG-H3K36NleCS+me2 (X. laevis | , cysteine at position 36 alkylated with vinyl dimethylsulfonium 4 (NleCS+me2))

Kd [1] [µM] | Kd [2] [µM] | Kd [3] [µM] | Binder
1.6 | 1.4 | 1.1 | PWWP domain of NSD2 (domain or fragment) VGDLVWSKVSGYPWWPCMVSADPLLHSYTKLKGQKKSARQYHVQFFGDAPERAWIFEKSLVAFEG
1.2 | 1.4 | 0.52 | PWWP domain of LEDGF (domain or fragment) not shown
